From patent US20210403602A1 (Bristol-Myers Squibb, published 2021)

How the values were obtained:
[1] = biological target: T1, denatured recombinant human IDO protein with a 6-His tag and thrombin site linker (His-Tb-IDO) (human, UniProt P14902 1-403); assay: direct ELISA of hybridoma supernatants on plates coated with denatured His-Tb-IDO at 2 ug/mL
T1 construct: Immunogen and ELISA coating antigen, used in denatured form; also called denatured tagged antigen
Experimental: After eleven days, hybridoma culture supernatants were collected and screened by direct ELISA for specific binding to denatured His-Tb-IDO. Briefly, 96-well polystyrene microplates (Corning 9018) were coated overnight at 4C with 60 uL of denatured tagged antigen at 2 ug/mL in PBS. The plates were blocked with 200 uL/well of assay buffer containing 0.5% bovine serum albumin in PBS and washed. After the blocking step, 100 uL of supernatant from individual hybridoma culture wells were added and incubated for one hour on a plate shaker at room temperature. The plates were washed three times with PBS and 100 ul of F(ab′)₂ fragment goat anti-mouse IgG Fcγ (1:1000 dilution) (Jackson ImmunoResearch 115-036-071) was added and incubated for 1 hour at RT and washed again with PBS. The plates were then developed with 100 ul/well of ABTS HRP substrate (Surmodics ABTS-1000-01) for 5 to 10 minutes, and analyzed using a PerkinElmer EnVision microplate reader at 405 nm. The data was analyzed using TIBCO Spotfire.

[2] = biological target: T2, human Indoleamine 2,3-dioxygenase (IDO) in fixed cells and tissues (human, UniProt P14902 1-403); assay: immunohistochemistry on FFPE H1048 cells and cervical SCC tissue, HALO image analysis; antibody concentration printed on the sheet as 0.5 ug/ml, given in the legend as 0.05 ug/ml
T2 construct: also called IDO1; human IDO
T2 sequence (P14902 whole entry): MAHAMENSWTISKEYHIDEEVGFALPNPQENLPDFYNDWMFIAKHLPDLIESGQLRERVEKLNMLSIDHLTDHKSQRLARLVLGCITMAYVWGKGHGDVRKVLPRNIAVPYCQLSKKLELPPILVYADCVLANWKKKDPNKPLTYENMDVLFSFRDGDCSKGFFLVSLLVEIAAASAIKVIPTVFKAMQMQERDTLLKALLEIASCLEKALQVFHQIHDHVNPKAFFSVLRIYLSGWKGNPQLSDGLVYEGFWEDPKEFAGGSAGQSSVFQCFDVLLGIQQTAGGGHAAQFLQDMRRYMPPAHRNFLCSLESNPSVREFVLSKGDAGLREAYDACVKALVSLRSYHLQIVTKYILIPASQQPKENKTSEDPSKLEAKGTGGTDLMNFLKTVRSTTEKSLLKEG
Experimental: To further develop a user and clinical friendly assay, mAb 1E7 was optimized for automated IHC using the Leica BondRX platform. The Bond Polymer Refine Detection System (Leica, catalog #DS9800) was used for the detection of IDO1 and all incubations were carried out at room temperature. Briefly, slides were deparaffinized and rehydrated following routine histology procedures. The slides were loaded onto the Leica BondRX automated IHC stainer and antigen retrieved with either the Bond Epitope Retrieval Solution 1 (Leica, catalog #AR9961) or 2 (Leica, catalog #AR9640) for 20 minutes at 95° C. Peroxidase block from the Bond Polymer Refine Detection kit (Leica, catalog #DS9800) was applied to the slides for 10 min, followed by non-specific binding blocking using protein block (Agilent-DAKO, catalog #X0909) supplemented with 0.5% human gamma globulins (Sigma, catalog #G-4386) for 20 min. Primary antibody 1E7 was incubated at 0.03 or 0.05 μg/ml for 60 minutes, and followed by rabbit anti-mouse linker and then anti-rabbit Poly-HRP-IgG from the Bond Polymer Refine Detection Kit for 30 min each step. […] Whole slide digital images of stained slides were captured and viewed using Aperio AT2 ScanScope and e-Slide Manager (Leica), and then analyzed by a pathologist for manual score or with Halo software (Indica) for quantitative image analysis.

T1 sequence (P14902 other isoform, or with tags, fused parts or gaps limits assumed): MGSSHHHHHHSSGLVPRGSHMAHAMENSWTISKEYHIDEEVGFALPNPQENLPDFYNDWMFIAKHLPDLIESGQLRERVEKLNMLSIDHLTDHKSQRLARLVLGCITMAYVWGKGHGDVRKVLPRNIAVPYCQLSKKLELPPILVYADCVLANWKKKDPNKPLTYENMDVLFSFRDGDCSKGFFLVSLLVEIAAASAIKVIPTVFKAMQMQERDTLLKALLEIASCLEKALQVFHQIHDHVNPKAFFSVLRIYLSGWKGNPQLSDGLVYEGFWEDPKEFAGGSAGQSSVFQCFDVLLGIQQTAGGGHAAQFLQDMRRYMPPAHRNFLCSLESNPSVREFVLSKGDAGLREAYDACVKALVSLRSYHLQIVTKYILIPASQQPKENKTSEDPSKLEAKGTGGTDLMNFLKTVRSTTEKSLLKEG

- binding result [1]: binds
- binding result [2]: binds
B1: anti-IDO monoclonal antibody 1E7 (antibody, mouse IgG1, kappa, V domains shown)
VH: QVQLQQSGAELAKPGASVKMSCKTSGYTFTSYWMHWVKQRPGQGLEWIGYINPTTGYTDCNQKFKDKATLTADKSSNTAYLQLSSLTSEDSAVYYCARSAMFGRGWGQGTTLTVSS
VL: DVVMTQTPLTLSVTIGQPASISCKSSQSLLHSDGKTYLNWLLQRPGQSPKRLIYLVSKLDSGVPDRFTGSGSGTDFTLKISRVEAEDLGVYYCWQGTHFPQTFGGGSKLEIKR
notes: also called mAb 1E7; IDO mAb 1E7
